Data published in patent publication US20230167185A1 (STRIKE PHARMA, published 2023).

T1: caCD40-Fc (Sino Biological #70105-D02H) (canine, UniProt Q7YRL5 21-194)
T1 construct: also called Canine CD40-Fc; canine CD40; not shown: Fc part of the bought fusion
T1 sequence (looked up): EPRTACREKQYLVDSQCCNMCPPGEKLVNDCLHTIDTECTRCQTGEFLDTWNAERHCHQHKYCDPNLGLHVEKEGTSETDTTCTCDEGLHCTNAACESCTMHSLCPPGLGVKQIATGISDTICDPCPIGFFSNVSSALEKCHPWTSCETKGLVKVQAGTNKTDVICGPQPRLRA

B1: Y-SM083-B8 (antibody, V domains shown)
VH: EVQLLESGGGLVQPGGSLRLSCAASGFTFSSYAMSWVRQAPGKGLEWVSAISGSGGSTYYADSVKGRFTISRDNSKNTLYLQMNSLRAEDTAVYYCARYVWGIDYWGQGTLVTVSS
VL: DIQMTQSPSSLSASVGDRVTITCRASQSISSYLNWYQQKPGKAPKLLIYAASSLQSGVPSRFSGSGSGTDFTLTISSLQPEDFATYYCQQGYGYPPFTFGQGTKLEIK
B2: Y-SM083-A9 (antibody, human IgG2, kappa, V domains shown)
VH: EVQLLESGGGLVQPGGSLRLSCAASGFTFSSYAMSWVRQAPGKGLEWVSGISGYSGSTYYADSVKGRFTISRDNSKNTLYLQMNSLRAEDTAVYYCARYYSYYGYYYFDYWGQGTLVTVSS
VL: DIQMTQSPSSLSASVGDRVTITCRASQSISSYLNWYQQKPGKAPKLLIYAASSLQSGVPSRFSGSGSGTDFTLTISSLQPEDFATYYCQQGYPYPFTFGQGTKLEIKR
notes: also called A9 antibody; SP9
B3: X-SM083-bi-23 (bispecific antibody, human IgG2, kappa)
heavy: EVQLLESGGGLVQPGGSLRLSCAASGFTFSSYAMSWVRQAPGKGLEWVSGISGYSGSTYYADSVKGRFTISRDNSKNTLYLQMNSLRAEDTAVYYCARYYSYYGYYYFDYWGQGTLVTVSSASTKGPSVFPLAPCSRSTSESTAALGCLVKDYFPEPVTVSWNSGALTSGVHTFPAVLQSSGLYSLSSVVTVPSSNFGTQTYTCNVDHKPSNTKVDKTVERKCCVECPPCPAPPVAGPSVFLFPPKPKDTLMISRTPEVTCVVVDVSHEDPEVQFNWYVDGVEVHNAKTKPREEQFNSTFRVVSVLTVVHQDWLNGKEYKCKVSNKGLPAPIEKTISKTKGQPREPQVYTLPPSREEMTKNQVSLTCLVKGFYPSDIAVEWESNGQPENNYKTTPPMLDSDGSFFLYSKLTVDKSRWQQGNVFSCSVMHEALHNHYTQKSLSLSPGKGGGGSGGGGSEVQLLESGGGLVQPGGSLRLSCAASGFTFSNYWMSWVRQAPGKGLEWVSGISGNGGYTYFADSVKDRFTISRDNSKNTLYLQMNSLRAEDTAVYYCAGGDGSGWSFWGQGTLVTVSSGGGGSGGGGSGGGGSGGGGSQSVLTQPPSASGTPGQRVTISCTGSSSNIGAGYDVHWYQQLPGTAPKLLIYGNNNRPSGVPDRFSGSKSGTSASLAISGLRSEDEADYYCAAWDDSLSGRVFGGGTKLTVL
light: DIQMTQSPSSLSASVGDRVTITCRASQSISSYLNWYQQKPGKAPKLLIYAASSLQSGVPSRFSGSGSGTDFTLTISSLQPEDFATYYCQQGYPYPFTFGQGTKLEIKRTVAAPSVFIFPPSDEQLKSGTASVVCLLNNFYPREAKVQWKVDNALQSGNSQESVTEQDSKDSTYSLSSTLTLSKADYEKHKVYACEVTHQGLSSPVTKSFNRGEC

How the values were obtained:
[1] = target: T2, Biotinylated human CD40 (AcroBiosystems #CD0-H82E8) (human, UniProt P25942 21-193); experiment: SPR, captured IgG2, SCK, 1:1 model
T2 construct: also called hCD40-avi; Human CD40-avi; not shown: C-terminal Avi-tag
T2 sequence (P25942 21-193): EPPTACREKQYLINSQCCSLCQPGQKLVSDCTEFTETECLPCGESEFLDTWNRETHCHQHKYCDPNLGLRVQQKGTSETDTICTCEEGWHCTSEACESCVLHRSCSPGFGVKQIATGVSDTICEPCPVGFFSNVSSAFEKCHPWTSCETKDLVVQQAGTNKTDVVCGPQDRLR

[2] = target: T3, Human CD40 Fc chimera (R&D Systems #1493-CDB) (human, UniProt P25942 21-193); experiment: SPR, captured IgG2, SCK, 1:1 model, dimeric antigen
T3 construct: also called hCD40-Fc
T3 sequence (P25942 21-193, stated change not applied): as the sequence (P25942 21-193) above

[3] = target: T3, Human CD40 Fc chimera (R&D Systems …); experiment: SPR, captured IgG2, SCK, 1:1 model; apparent KD (appKD), dimeric antigen
[4] = target: T4, Cynomolgus CD40 Fc chimera (R&D Systems #9660-CD) (cynomolgus, UniProt G7PG38 21-193); experiment: as above
T4 construct: range 21-193; also called cCD40-Fc
T4 sequence (G7PG38 entry or part of it mutant): as the sequence (P25942 21-193) above, with G43S, H56R, R70Q, W89L, A95S, L101P, S106L, H142R, L172Q counted along it

[5] = target: T5, Mouse CD40 (AcroBiosystems #TN5-M52H8) (mouse, UniProt P27512 24-193); experiment: SPR, captured IgG2, single injection of mCD40
T5 construct: range 24-193; also called mCD40
T5 sequence (P27512 24-193 limits assumed): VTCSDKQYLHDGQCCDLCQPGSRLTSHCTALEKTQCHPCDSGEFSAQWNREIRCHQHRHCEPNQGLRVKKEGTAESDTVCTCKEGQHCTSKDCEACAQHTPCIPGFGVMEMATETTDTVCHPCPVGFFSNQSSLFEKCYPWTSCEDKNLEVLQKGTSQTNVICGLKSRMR

[6] = target: T4, Cynomolgus CD40 Fc chimera (R&D Systems …); experiment: SPR, captured IgG2, SCK, 1:1 model, dimeric antigen
[7] = target: T1, caCD40-Fc (Sino Biological #70105-D02H); experiment: SPR, captured IgG2, caCD40-Fc 0.16-100 nM, SCK
[8] = target: human CD40 on cells (CD19+ cells of PBMC; monocyte-derived dendritic cells) (human, UniProt P25942 21-277); experiment: cell-based or functional assay
human CD40 on cells (CD19+ cells of PBMC; monocyte-derived dendritic cells), sequence (P25942 21-277 limits assumed): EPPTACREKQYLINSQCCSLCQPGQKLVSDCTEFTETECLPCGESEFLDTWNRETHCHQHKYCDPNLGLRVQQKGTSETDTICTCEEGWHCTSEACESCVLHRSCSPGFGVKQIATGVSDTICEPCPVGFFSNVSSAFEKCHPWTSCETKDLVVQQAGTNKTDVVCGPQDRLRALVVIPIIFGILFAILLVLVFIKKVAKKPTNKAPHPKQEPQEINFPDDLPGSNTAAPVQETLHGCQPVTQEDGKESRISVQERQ

| Binder | Kd [1] [nM] | koff [2] [s⁻¹] | kon [2] [M⁻¹ s⁻¹] | Kd [3] [nM] | Kd [4] [nM] | binding result [5] | koff [1] [s⁻¹] | kon [1] [M⁻¹ s⁻¹] | koff [6] [s⁻¹] | kon [6] [M⁻¹ s⁻¹] | binding result [7] | agonistic activity relative to the parental antibody SP9 (A9) (IL-12 production by MoDCs) [8] [%] |
| --- | --- | --- | --- | --- | --- | --- | --- | --- | --- | --- | --- | --- |
| B1 | 15 | 0.0015 | 120000 | 13 | 13 | no binding (tested: 80 nM) | – | – | – | – | – | – |
| B2 | 37 | 0.0016 | 310000 | 5.1 | 4.5 | no binding (tested: 80 nM) | 0.0061 | 170000 | 0.0022 | 500000 | no binding (tested: 100 nM) | – |
| B3 | – | – | – | – | – | – | – | – | – | – | – | 92 |
